This note sets out measurements from the domain aggregation screens of Martell et al. (2025).

The series is described as follows: soluble fraction after stress (log2 fold change); higher = more stays soluble; pooled small domains, quantitative proteomics. To be noted: stress: 75 degC.
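Also: 20 min heating vs room temperature control held 20 min.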

For “HMSMDYYNILGVNRNASTGEIKKAYKRASMQHHPDRGGNSDEFIKVQQAYDTLSDNHKRQAYDNP”, the “soluble fraction (log2)” value was -0.0907.
The same measure for “HMSMDYYSTLGVSKTASASDIKKAYRKLAMANHPDKGGDSAKFAKITEAYDVLKDPQKRNNYDQFGTA”: 0.0592; for “HMSMEQAKAEEIEKLGDNAPERLQAAALFAEKFFPQDVMDAVYKITETADGVRAIEHIMQTVK”: -1.11; for “HMSMISLPNFVGKDIETVKAWAKENGITLIINKVEDSAKKDTVISQNPTNSDYSKILKGSAFTVNIAKE”: 0.0389.
The same measure for “HMSMRILNHTVVKILKRYRIATDEQLQPLLDEAERSGRSLQDVVLDAKLVSETELTKLFADYAD”: -3.66; for “HMSMVGNIEKILVTGESKKSSELLAGRTENNRVVNFTGEKVLIGSMVNVRIEEVFPNSLGGSYLPS”: -0.133; for “HMSNAIDDAVEKVISENLDLAKERGLQSMGPLMGLVMKELGGTADGKAVSEALRRKISEISD”: 0.413.
In the case of “HMSNEDAYIKLRNGFLATLSEADLLLFTLREEGKTQKEIADQLGYKTHSAVSKRLQTMRGQFEGYLKTQ”, the “soluble fraction (log2)” value was -1.03.
The same measure for “HMSNEIIFNQKSITRFLMNPENNSPMIYPLELGHEMKVIKKNNDWLNVTDEKTGLNGWVISDDFGLTKPEG”: -0.118; for “HMSNETLFEFFEKNISQLTPTLVDNINRSLAVHSKKNVKLAIMIAAKSNVRNWNYISAILNRWEKE”: -2.4.
To “HMSNIAQRLVLENALAKLNQEQQTIIDLRIIKGYSVAETARLLGKTESAVRTAQYRALKELAGILEED” belongs -2.07; to “HMSNIIIYPNPTNDGLIHIKGSKFPFNYALYNLSGKLIETGKKNQIQLNDRGVYLLKIQTEGQTYFKKII”, -0.16; to “HMSNNILEISSNKKNMKIQENKNLVESYYSKTENLYSFKLVFKNKRDLDQFLKEVYEDDSTINYKTSS”, -1.27.
The same measure for “HMSNPPLPFLAKTKVSWTGEQDGDLGFLENEVVKVFHVVDELWWQGSLSRNGAEGIFPRDFVEVISAP”: -2.09.
As to “HMSNSWSYSEFMKAVESGQVESVTISGQSIKGTSRGGQAFESVLPAFDDKLMDTLLVNDVEVIGEKP”, the “soluble fraction (log2)” value is 0.556.
On to “HMSNTGDIIRKLREESGVTAKELAHRIGLSASQMSRLESGKRRINSEVLTRIARALEVAPSQLID”, for which the “soluble fraction (log2)” value was -0.439.
Take “HMSNTIFGINGPVVTVASKDFSMQEMVYVGNERLVGEVISIDDDLTTIQVYEVTTGLKPGEPVVGTGSAM”: the “soluble fraction (log2)” value is -0.34.
To “HMSNVDYSQFKKDTVVEHTKFGRGIIIQTSGDGEDKIAAIAFKGLGVKRFSLAIAAASLKIIGKNDE” belongs -2.49; to “HMSNYFIEISKDSLARINDEIELDVLRETSDTIIISQEEKTNTISSFIKVLFERQIDILSIQNR”, 0.0911; to “HMSNYYNILGVNKSSTQDEIKKAFRKKAVEHHPDKGGNEATFKKINEAYNTLSDNNKRHMYDMQQSG”, 0.119.
To “HMSPDALSNLPIGSEIKFTLWDGTEKRLVKHPAAYQFSRPFWMNLNEYTYVPVNRIPKNYEVIRL” belongs 0.182; to “HMSPEVEEISIDHLKAGMRILSDLRLPNGTLVAPKGSVVDAHFIKIVENYVISYFGNPFPDRIKVIM”, -1.95; to “HMSPEWTPAEQDAIDKASEGEYGEALQRVLSGDYEPMDIPDALWGVQQVADKDTYSSIQKKIADIGN”, 0.383.
To “HMSPIPLPVERAIHKLGSDISLARRRRHISQASLAERMGASLSTVRRMEKGDVRVPIHFFARALHVFG” belongs 0.123; to “HMSPIQLKYNEYLIYIDEGKINTAEIHGNKITGKLKEGSEYVVTIYPELIASITEKLAENNVQTQLIQ”, -0.0829.
Regarding “HMSPLPDRESLGAIEKLISLLGSSEWTVREKATRELGAFGYLARPVLQRELATSGDPEVSRRLERILSNL”, the “soluble fraction (log2)” value was -0.545.
The same measure for “HMSPLTPEEAEVLRILGDHGDMTVDNIATEGKMSAAAVLRVLGVLSAYGLAVPSGPGRWGSRAA”: -0.462.
The same measure for “HMSPPPRPSHPEAAGLRHLAFEVDNIDDAVRHLDRLGVPHEPVRTDEYTGRRFLFFTDPDRLPLELYEK”: -0.432.
Regarding “HMSPQIDYFDDEELDVYRQIAPEAYTDEQIEVFRDILYTLRPEEVEEWLISLEKREINLPLILRQEAIELI”, the “soluble fraction (log2)” value is 0.481.
The same measure for “HMSPRQVTAVRSGSPMPVLPGEDWRLYDASGALVARGSGAAPIPKSTGLLRLNSEGLDGLADRWIWVL”: -0.553; for “HMSPSRRENLTAAAKEYFVNTQIRHKTFGNGVIIKRSGNIAAIRFDNGTIKQIDLIAALQAKVLSIL”: -2.71; for “HMSPSTNKTFSFSKENISIGQTVFIKKLNQNATVLTLPNKSNQLQVQFGVITMNVKLEDLALPTN”: -2.62.
The same measure for “HMSPTSSRAAQARIRKMIESESPLKPISDSQLAARLGEEGISIARRTVAKYREQMNILPASQRRGV”: -0.351; for “HMSPVPRIEIELTSSKEDGSWTWRAVGAREPRGSLDGALLAKPAAVGDVLRVETDQFLDGMTVTAILPPRD”: -0.263; for “HMSQAVEISSVKTQIDGKSYYLHTIKQGQTLYGISKAYGVSVEELTTVNPETSKGLKVGQIIKVPDTKT”: 0.395.
To “HMSQDLVVLGDSMLNNALKAFHIDPNAIKKKYWDKLILDYHLKSKEEVLTEIALGKKINVMVAHQLTSIMD” belongs 0.051; to “HMSQEILSNQSIKDMIELGFEEQTIIDKIQTSTSDFDTTIEELKALKQLGASPTILSAMIKSIKK”, 1.01; to “HMSQLDITEARIVVSGGLGMQGPENFKLLEELAKVLGGAVGASRPVVDNGWREYSNQVGQTGKIVAPELYV”, 0.0901.
As for “HMSQLETEEAKRIVLKDLLRLYNNYNIIELEEDEFDRFITYLNMPYDFLQKTSDYDLAVSIKRMYASY”, the “soluble fraction (log2)” value is -2.28.
Turning to “HMSQNISSTKLIPENIKIGMSVFVIPLQQKGIVQSLPNRSKEVLVQIGNAKINVKINNLKLIED”, the “soluble fraction (log2)” value is -0.142.
As to “HMSQNTHTIPSREDILGIFRSVNAPLDPQSLGKTLQVHADSMDVLVRRLKAMERDGQLKSDASGVFSLAD”, the “soluble fraction (log2)” value turned out to be 0.185.
The same measure for “HMSQNVQDVFLNHVRKSKNPVTVFLVNGVKLQGIITWFDNFSVLLRREGHTQLVYKHAISTVMPSGPIQLF”: 0.113; for “HMSQPALSYAFAKAQGVIVTALGDVAEVARRKGSQPQALAEVRRIAGRPLALREVDDAAFDRLLQDHYARS”: -0.646.
The same measure for “HMSQQMSYSDFVKAVSARQIREAQIQGDKIYATDSTGNRLTIIRLDNDQRLVDDMINNDVNIIGLEE”: 0.177.
Regarding “HMSQSDLASAIGARVTIRLREASGGFRDIVGVLQRFGSGYGELINSKGEALTFSESEIAIWREVKA”, the “soluble fraction (log2)” value is -2.5.
To “HMSQTELIIVEEEMDGERLDAFLAEQVEQLSRSAVKNLINEGQVLVNGAKQKASYHVREGDEISIEIPEPQ” belongs 0.836.
To “HMSQTPDLQQERANLGDNADARIEAVDLWANKFFPEEHADAILQIGQTAKGIEALEFIMSKV” belongs -0.0375; to “HMSQVLVRINQDLNIRSGPGAQYDIIAVYRSGAIASVIGTYNNWYKVNFELDSKSYTGWINGTFTSR”, -2.48; to “HMSQYELEDVEKQRLKFKNGDEKALWLLSDIYKDNSQSYEVRLAALRALSESRHPLIIFDIQSSVK”, -0.527.
The same measure for “HMSRAAQRLFMSQPPLSRHIRQLEDRLGVTLFVRHTRGLTLTEDGQRVLEMVRPLLDLQDKTYAALSQLT”: 0.0487.
